One assay has as its target T1, recombinant soluble BCMA (Homo sapiens (Human), UniProt Q02223 1-54).
T1 sequence: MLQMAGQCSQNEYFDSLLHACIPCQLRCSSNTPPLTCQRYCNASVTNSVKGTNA
In words: cell-based or functional assay.

The target of assay [1] is T2, cynomolgus monkey BCMA (as used in SPR) (cynomolgus monkey).
T2 construct: also called cyno BCMA
Put plainly: SPR; column printed 'Binding Affinity to BCMA (nM)', Cyno. (SPR reads the build-up and loss of mass on a sensor chip optically.)

B1: teclistamab (bispecific antibody, human IgG4 S228P, lambda, F234A L235A)
heavy 1: not shown
light 1: SYVLTQPPSVSVAPGQTARITCGGNNIGSKSVHWYQQPPGQAPVVVVYDDSDRPSGIPERFSGSNSGNTATLTISRVEAGDEAVYYCQVWDSSSDHVVFGGGTKLTVLGQPKAAPSVTLFPPSSEELQANKATLVCLISDFYPGAVTVAWKGDSSPVKAGVETTTPSKQSNNKYAASSYLSLTPEQWKSHRSYSCQVTHEGSTVEKTVAPTECS
heavy 2: EVQLVESGGGLVQPGGSLRLSCAASGFTFNTYAMNWVRQAPGKGLEWVARIRSKYNNYATYYAASVKGRFTISRDDSKNSLYLQMNSLKTEDTAVYYCARHGNFGNSYVSWFAYWGQGTLVTVSSASTKGPSVFPLAPCSRSTSESTAALGCLVKDYFPEPVTVSWNSGALTSGVHTFPAVLQSSGLYSLSSVVTVPSSSLGTKTYTCNVDHKPSNTKVDKRVESKYGPPCPPCPAPEAAGGPSVFLFPPKPKDTLMISRTPEVTCVVVDVSQEDPEVQFNWYVDGVEVHNAKTKPREEQFNSTYRVVSVLTVLHQDWLNGKEYKCKVSNKGLPSSIEKTISKAKGQPREPQVYTLPPSQEEMTKNQVSLTCLVKGFYPSDIAVEWESNGQPENNYKTTPPVLDSDGSFLLYSKLTVDKSRWQEGNVFSCSVMHEALHNHYTQKSLSLSLGK
light 2: QTVVTQEPSLTVSPGGTVTLTCRSSTGAVTTSNYANWVQQKPGQAPRGLIGGTNKRAPGTPARFSGSLLGGKAALTLSGVQPEDEAEYYCALWYSNLWVFGGGTKLTVLGQPKAAPSVTLFPPSSEELQANKATLVCLISDFYPGAVTVAWKADSSPVKAGVETTTPSKQSNNKYAASSYLSLTPEQWKSHRSYSCQVTHEGSTVEKTVAPTECS
notes: Humanized IgG4 proline, alanine, alanine (PAA)-based bispecific antibody with one BCMA arm (BCMB69) and one CD3 arm (CD3B219); also called JNJ-64007957; JNJ-957
By Kd is commonly meant the equilibrium constant for the complex coming apart. For the molecule B1, the “cytotoxicity assay with spiked recombinant sBCMA (167 nM), reduction in potency” value with recombinant soluble BCMA was 2 fold. The same molecule yielded a Kd in assay [1] of 5.36 to 7.27 nM.
